# Literature values, collected in article PMC10094977.
# Legend:
# Cav1.2 IQ domain IQ = Cav1.2 IQ domain IQ (UniProt Q13936); experiment: isothermal titration calorimetry
# [1] = target: Cav1.2 alpha1C IQ domain 1611-1644 (Homo sapiens) (UniProt Q13936); experiment: isothermal titration calorimetry
# Sequence of Cav1.2 alpha1C IQ domain 1611-1644 (Homo sapiens) (Q13936 1611-1644): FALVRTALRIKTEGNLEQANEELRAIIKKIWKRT
# Sequence of Cav1.2 IQ domain IQ (Q13936 1665-1685): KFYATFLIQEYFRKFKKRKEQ
substance,measurement,setting,value
Ca2+/calmodulin C-lobe C-lobe (from UniProt P0DP23),Kd,Cav1.2 IQ domain IQ,2 nM
Calmodulin C-lobe (from UniProt P0DP23),Kd,[1],2 nM
